T1: FOXE1-Flag (human, UniProt O00358 1-373)
T1 sequence: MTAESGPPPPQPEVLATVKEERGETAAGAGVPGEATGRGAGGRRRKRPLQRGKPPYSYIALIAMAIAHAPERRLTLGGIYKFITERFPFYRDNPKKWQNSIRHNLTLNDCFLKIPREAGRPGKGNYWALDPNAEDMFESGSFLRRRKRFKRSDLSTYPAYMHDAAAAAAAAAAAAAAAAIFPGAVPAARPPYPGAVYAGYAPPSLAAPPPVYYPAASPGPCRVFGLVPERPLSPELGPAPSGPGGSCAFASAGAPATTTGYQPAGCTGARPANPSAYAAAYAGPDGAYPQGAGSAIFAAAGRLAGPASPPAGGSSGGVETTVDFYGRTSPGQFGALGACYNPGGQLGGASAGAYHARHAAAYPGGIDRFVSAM

T2: ELK1-HA (human, UniProt P19419 1-428)
T2 sequence: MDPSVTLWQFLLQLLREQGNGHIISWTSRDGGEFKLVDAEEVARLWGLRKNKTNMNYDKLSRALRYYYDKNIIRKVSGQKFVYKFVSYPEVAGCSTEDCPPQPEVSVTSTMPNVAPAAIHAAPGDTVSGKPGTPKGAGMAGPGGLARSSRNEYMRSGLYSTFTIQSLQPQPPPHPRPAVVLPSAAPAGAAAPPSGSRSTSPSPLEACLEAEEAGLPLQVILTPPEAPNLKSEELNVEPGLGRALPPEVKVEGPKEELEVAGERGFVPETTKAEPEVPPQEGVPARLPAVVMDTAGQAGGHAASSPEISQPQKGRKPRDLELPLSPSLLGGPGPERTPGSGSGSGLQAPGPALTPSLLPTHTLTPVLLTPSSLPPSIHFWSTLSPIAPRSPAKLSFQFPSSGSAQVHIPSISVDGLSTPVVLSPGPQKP

T3: FOXE1-Flag;ELK1-HA (human;human, UniProt O00358;P19419 1-373;1-428, |)
T3 sequence 1: T1 sequence
T3 sequence 2: T2 sequence

B1: TG promoter K region probe (dsDNA)
DNA 1: GAGGGAGTTCCTGTGACTAGCAGAGAAAACAAAGTGAGCCAC
DNA 2: GTGGCTCACTTTGTTTTCTCTGCTAGTCACAGGAACTCCCTC
B2: TERT promoter probe (dsDNA)
DNA 1: CCCCGCCCCGTCCCGACCCCTCCCGGGTCCCCGGCCCAGCCCCCTCCGGGCCCTCCCAGCCCCTCCCCTTCCTTTCCGCGGCCCC
DNA 2: GGGGCCGCGGAAAGGAAGGGGAGGGGCTGGGAGGGCCCGGAGGGGGCTGGGCCGGGGACCCGGGAGGGGTCGGGACGGGGCGGGG

Legend:
FOXE1-Flag = biological target: T1, FOXE1-Flag; test: EMSA; positive control; EMSA: 1 ug protein, 150 mM KCl, 50 ng/uL poly(dI-dC), 10% glycerol, 10 mM Tris pH 7.5, room temperature 30 min; 6% polyacrylamide gel; conditions: protein: recombinant; tags: 3xFlag (p3XFlag-CMV-7.1); label: 5' biotin; blunt
ELK1-HA = biological target: T2, ELK1-HA; test: EMSA; ELK1 alone; EMSA: 1 ug protein, 150 mM KCl, 50 ng/uL poly(dI-dC), 10% glycerol, 10 mM Tris pH 7.5, room temperature 30 min; 6% polyacrylamide gel; conditions: protein: recombinant; tags: HA (pCMV-HA-N); label: 5' biotin; blunt
FOXE1-Flag;ELK1-HA = biological target: T3, FOXE1-Flag;ELK1-HA; test: EMSA; FOXE1 shifts only with ELK1 present; EMSA: 1 ug protein, 150 mM KCl, 50 ng/uL poly(dI-dC), 10% glycerol, 10 mM Tris pH 7.5, room temperature 30 min; 6% polyacrylamide gel; conditions: protein: recombinant;recombinant; tags: 3xFlag (p3XFlag-CMV-7.1);HA (pCMV-HA-N); copies: 1;1; label: 5' biotin; blunt

Binder | binding result (FOXE1-Flag) | binding result (ELK1-HA) | binding result (FOXE1-Flag;ELK1-HA)
B1 | binds | – | –
B2 | – | binds | binds
